Experimental data published in patent publication US20100317830A1, “BACE455, AN ALTERNATIVE SPLICE VARIANT OF THE HUMAN BETA-SECRETASE” (EXONHIT THERAPEUTICS SA, priority 2003, published 2010).
Where a name gives a salt, the structure may show the parent alone. Blank lines part the entries; values can stand above or below the compound they belong to. Square brackets hold non-standard residues; d marks the D form. Peptide text beside a SMILES is read from it. * marks the point of attachment. Sta = CC(C)C[C@H](N)[C@@H](O)CC(=O)O; Isovaleryl = CC(C)CC(=O)*

Legend:
BACE455 = target: T1, BACE455 (Homo sapiens, UniProt P56817, DEL190-235); experiment: beta-secretase fluorogenic assay (Substrate V) with membrane extracts of HEK293-BACE455 cells plus protease inhibitors; assay type: biochemical; conditions: for Percentage of BACE455 inhibition by various inhibitors (mean percentage of cleavage inhibition) / inhibition at 100 µM: BACE455 cell extract; for Percentage of BACE455 inhibition by various inhibitors (mean percentage of cleavage inhibition) / effect on substrate cleavage activity of BACE455 extracts (in words) / inhibition at 100 µM: inhibitor 100 μM; for BACE455 activity (percentage of activity +−SEM): compared to mock transfected control; for % Inhibition of BACE activity by Inhibitor III: BACE455, 100 μM; for inhibition at 100 µM: read-out: Percentage of BACE455 inhibition by various inhibitors (mean percentage of cleavage inhibition)
T1 construct: full length cDNA of BACE501 and BACE455 in TOPO TA vector were subcloned into pcDNA3; expressed in transfected cells; Triton X100 membrane extract
Description: (§1) Cells were harvested and centrifuged at 1,500 rpm for 5 minutes to remove the medium. The cell pellets were washed once with PBS. To further compare BACE455 activity with that of BACE501, an in vitro assay was developed based on quenched fluorogenic substrate (Substrate V, Calbiochem) containing the Swedish mutation KM->NL in APP. Sequence of the peptide was: MCA-[…](DNP)-CONH2 (SEQ ID NO: 32), containing the Swedish APP mutation (in boldface), γ-amino-4-methyl coumarin (MCA) as the fluorophore and dinotrophenol (DNP) as the quencher. When cell lysates of BACE455 and BACE501 expressing cells are incubated with the fluorogenic Substrate V, upon cleavage by the protease, the fluorophore is separated from the quenching group, restoring the full fluorescence yield of the donor. (Ermolief et al., Biochemistry 39: 12450-12456 (2000); Ellerby et al. J. Neurosci. 17: 6165-6178 (1997); Capel et al., J Biol. Chem. 277: 5637-43 (2002)).
(§2) Mock transfected HEK293 and HEK293-BACE455 and -BACE501cells were harvested by scraping in ice-cold 20 mM Tris/150 mM NaCl, pH 7.5 plus Complete Protease Inhibitor Cocktail (Roche Diagnostics). Cell were lysed by repeated freeze-thawing and a postnuclear fraction was generated after centrifugation at 500 g for 10 min, Pellets were resuspended in membrane extraction buffer (20 mM MES/1% Triton X100) containing protease inhibitor cocktail and incubated on ice for 30 minutes. The assay was carried out in black 96 well plates (ATGC) in a volume of 200 μl of the membrane preparation diluted in reaction buffer (25 mM MES/25 mM Sodium Acetate/25 mM Tris, pH 4.4) containing 15 μM peptide Substrate V. These components were equilibrated to 37[deg.] C. for various times and the reaction initiated by addition of substrate. Excitation was performed at 320 nm and the reaction kinetics were monitored by measuring the fluorescence emission at 420 nm. To test the effect of pH, lysed cells were resuspended in 25 mM MES/25 mM Sodium Acetate/25 mM Tris adjusted at pH values ranging from 4.4 to 8 and then incubations were performed as above. Controls included purified recombinant human BACE501 protein (R&D Systems), or substrate alone and background fluorescence is subtracted to recorded BACE isoforms activities.
(§3) Protease inhibitors were added to 100 μl reaction buffer (25 mM MES/25 mM Sodium Acetate/25 mM Tris, pH 4.4) at a final concentration of 100 μM. […] Membrane preparations were obtained as in Example 4 and incubated with the inhibitors for 10 min at room temperature. Reaction was then started by adding 100 μl of reaction buffer containing the substrate (15 μM final concentration) and monitored as described in Example 4. For the dose-response experiment of FIG. 3, Inhibitor III was assayed at various concentrations ranging from 100 μM to 100 nM
(§4) Membrane preparations were obtained as in Example 4 and incubated in assay buffer (25 mM MES/25 mM Sodium Acetate/25 mM Tris) adjusted to final pH ranging from 4.4 to 8, in the presence or absence of BACE inhibitor III (100 μM final concentration). Reaction was started by adding 100 μl of reaction buffer (pH ranging from 4.4 to 8) containing the substrate (15 μM final concentration) and monitored as described in Example 4. We determined in these conditions the percentage of inhibition of BACE by Inhibitor III.

BACE501 = target: T2, BACE501 (Homo sapiens, UniProt P56817); experiment: beta-secretase fluorogenic assay (Substrate V) with membrane extracts of HEK293-BACE501 cells plus protease inhibitors; assay type: biochemical; conditions: for Percentage of inhibition by various inhibitors (mean percentage of cleavage inhibition), BACE501 / inhibition at 100 µM: BACE501 cell extract; for Percentage of inhibition by various inhibitors (mean percentage of cleavage inhibition), BACE501 / effect on substrate cleavage activity of BACE501 extracts (in words) / inhibition at 100 µM: inhibitor 100 μM; for BACE501 activity (percentage of activity +−SEM): compared to mock transfected control; for % Inhibition of BACE activity by Inhibitor III: BACE501, 100 μM; for inhibition at 100 µM: read-out: Percentage of inhibition by various inhibitors (mean percentage of cleavage inhibition), BACE501
T2 construct: full length cDNA of BACE501 and BACE455 in TOPO TA vector were subcloned into pcDNA3; expressed in transfected cells; Triton X100 membrane extract
Description: as §1, §2, §3, §4

[1] = test system: endogenously expressed APP isoforms in SH-SY5Y cells; experiment: Western blot of C99 fragment generation in transfected SH-SY5Y cells; assay type: cell-based, human; conditions: BACE455 SH-SY5Y cells
Description: SH-SY5Y cells for transfection were grown to 80% confluence in Dulbecco's modified Eagle's medium (DMEM) with 10% fetal bovine serum. Transfections were performed using LipofectAmine Plus (Gibco-BRL) with […] per 10*10<6>cells. Three days posttransfection, cells were passaged into medium containing G418 at a concentration of 400 μg/ml. After twenty days growth in selective medium, individual clones were selected and plated into each well of one 96 well plate containing growth medium plus G418. Clones were expanded from the 96 well plate to a 24 well plate and then to a 6 well plate. Clones which had lost initial neuronal-like morphology were not amplified. BACE455 or BACE501 expression in selected clones was assayed by Western Blotting and immunohistochemical analysis using Cterminal-specific antibody.
Cells were harvested 3 days after plating. Cells were washed twice with PBS and lysed in 1 ml CellLytic solution (Sigma) plus protease inhibitors cocktail (Roche Diagnostics) for 15 min. […] Following electrotransfer of the separated polypeptides to PVDF membranes, APP and C99 proteolytic fragment were detected with C-terminal-specific rabbit anti-APP antibody (Serotec, UK) at 1/500 in PBS-Tween 20 0.1%, and the antibody-antigen complexes were visualized using alkaline phosphatase conjugated goat anti-rabbit antibodies (1/5000). […]

[2] = test system: endogenously expressed APP in SH-SY5Y cells; experiment: Aβ1-40 double antibody sandwich ELISA on conditioned medium of transfected SH-SY5Y cells; assay type: cell-based, human; conditions: Gleevec treatment of BACE455 cells
Description: Cells were harvested 3 days after plating and processed for Western Blotting experiments as described above.
Cell culture supernatants harvested 72 hours after plating were analyzed in a standard double antibody isoform-specific Aβ1-40 ELISA (BioSource International) as follows. […] The detecting antibody is specific for Abeta 1-40 and the conjugated secondary antibody is an anti-rabbit IgG conjugated to horseradish peroxydase. Synthetic human Aβ1-40 standard peptides are serially diluted in the supplied sample diluent for the generation of standard curves.
Human Abeta 1-40 standards were added after washing the plate, as well as 100 μl/well of sample, e.g., conditioned medium of transfected cells. The plate was incubated at 4[deg.] C. overnight. The next day, after washing the plate four times, 100 μl/well rabbit detection antibody was added and incubated for 2 hours on an orbital plate shaker at 20 degree C. […] 100 μl/well stop solution was added and absorbance of each well was read at 450 nm within two hours, with a solution of 100 μl each of chromogen and stop solution as the blank. […] The samples with absorbance values falling within the standard curve were extrapolated (by comparison to the values obtained for the A-β40 and A-β42 standard peptides analyzed on the same plate) from the standard curves and expressed in pg/ml culture medium.

T2 sequence (P56817 46-501): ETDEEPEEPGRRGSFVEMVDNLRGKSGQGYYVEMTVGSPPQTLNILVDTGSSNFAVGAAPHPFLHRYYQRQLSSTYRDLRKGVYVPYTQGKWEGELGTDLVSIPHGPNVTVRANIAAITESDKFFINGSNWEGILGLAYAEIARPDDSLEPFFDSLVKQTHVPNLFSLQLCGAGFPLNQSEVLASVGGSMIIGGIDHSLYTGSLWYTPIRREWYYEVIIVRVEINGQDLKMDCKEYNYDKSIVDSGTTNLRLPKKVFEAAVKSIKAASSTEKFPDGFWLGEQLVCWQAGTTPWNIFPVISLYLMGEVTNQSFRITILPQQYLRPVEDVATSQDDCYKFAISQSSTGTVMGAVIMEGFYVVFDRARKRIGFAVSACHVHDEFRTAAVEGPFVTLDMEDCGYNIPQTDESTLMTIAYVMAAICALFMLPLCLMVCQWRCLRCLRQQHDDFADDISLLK
T1 sequence (P56817 with tags, fused parts or gaps DEL190-235): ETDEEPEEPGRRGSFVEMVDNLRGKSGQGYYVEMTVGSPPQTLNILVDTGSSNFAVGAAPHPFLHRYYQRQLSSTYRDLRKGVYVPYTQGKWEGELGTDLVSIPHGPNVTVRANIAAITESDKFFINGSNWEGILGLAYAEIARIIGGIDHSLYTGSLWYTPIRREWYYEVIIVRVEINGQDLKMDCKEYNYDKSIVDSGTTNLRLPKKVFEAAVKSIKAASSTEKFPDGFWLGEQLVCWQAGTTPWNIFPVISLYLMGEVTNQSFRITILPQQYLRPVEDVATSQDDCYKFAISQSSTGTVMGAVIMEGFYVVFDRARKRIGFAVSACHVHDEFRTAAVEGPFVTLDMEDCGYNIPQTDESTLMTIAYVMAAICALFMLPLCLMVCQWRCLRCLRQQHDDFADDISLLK

Percentage of BACE455 inhibition by various inhibitors (mean percentage of cleavage inhibition) (BACE455; pH 4.4): 12.23%
Percentage of inhibition by various inhibitors (mean percentage of cleavage inhibition), BACE501 (BACE501; pH 4.4): 13.14%
Compound: CC(C)CCNC(=O)[C@H](CC(C)C)NC(=O)[C@H]1O[C@@H]1C(=O)O [E-64c, E64c]

Compound: Cc1ccc(NC(=O)c2ccc(CN3CCN(C)CC3)cc2)cc1Nc1nccc(-c2cccnc2)n1 [Gleevec, imatinib mesylate]
generation of C99 peptide ([1]; 10 μM for the last 24 hours): strongly reduced
Aβ1-40 release (in words) [2]: strongly reduced

BACE455 activity (percentage of activity +−SEM) (BACE455; 1 μM inhibitor): 57.52+−9.08%
BACE455 activity (percentage of activity +−SEM) (BACE455; 10 μM inhibitor): 36.04+−4.13%
% Inhibition of BACE activity by Inhibitor III (BACE455; pH 4.4): 104.16%
% Inhibition of BACE activity by Inhibitor III (BACE455; pH 6.0): 15.97%
% Inhibition of BACE activity by Inhibitor III (BACE455; pH 8.0): 22.10%
Percentage of BACE455 inhibition by various inhibitors (mean percentage of cleavage inhibition) (BACE455; pH 4.4): 104.16%
effect on substrate cleavage activity of BACE455 extracts (in words) (BACE455): completely abolished
BACE501 activity (percentage of activity +−SEM) (BACE501; 1 μM inhibitor): 85.15+−2.93%
BACE501 activity (percentage of activity +−SEM) (BACE501; 10 μM inhibitor): 57.6+−3.12%
% Inhibition of BACE activity by Inhibitor III (BACE501; pH 4.4): 117.54%
% Inhibition of BACE activity by Inhibitor III (BACE501; pH 6.0): 13.23%
% Inhibition of BACE activity by Inhibitor III (BACE501; pH 8.0): 17.63%
Percentage of inhibition by various inhibitors (mean percentage of cleavage inhibition), BACE501 (BACE501; pH 4.4): 117.54%
effect on substrate cleavage activity of BACE501 extracts (in words) (BACE501): completely abolished
Compound: H-Glu-Val-Asn-Statine-Val-Ala-Glu-Phe-NH2 [Inhibitor III]

inhibition at 100 µM (BACE455; pH 4.4): 14.4%
effect on substrate cleavage activity of BACE455 extracts (in words) (BACE455): very weakly sensitive
inhibition at 100 µM (BACE501; pH 4.4): 13.1%
effect on substrate cleavage activity of BACE501 extracts (in words) (BACE501): very weakly sensitive
Compound: CC(C)CC(=O)N[C@H](C(=O)N[C@H](C(=O)N[C@@H](CC(C)C)[C@@H](O)CC(=O)N[C@@H](C)C(=O)N[C@@H](CC(C)C)[C@@H](O)CC(=O)O)C(C)C)C(C)C [Pepstatin A] (Isovaleryl-VV[Sta]A[Sta]-OH)

Compound: CC(C)C[C@H](NC(=O)[C@@H](NC(=O)N[C@@H](Cc1ccccc1)C(=O)O)[C@@H]1CCN=C(N)N1)C(=O)N[C@H](C=O)Cc1ccccc1 [Chymostatin]
inhibition at 100 µM (BACE455; pH 4.4): 25.9%
inhibition at 100 µM (BACE501; pH 4.4): 20.4%

Compound: CC(=O)N[C@@H](CC(C)C)C(=O)N[C@@H](CC(C)C)C(=O)N[C@H](C=O)CCCNC(=N)N [Leupeptin]
inhibition at 100 µM (BACE455; pH 4.4): 17.3%
inhibition at 100 µM (BACE501; pH 4.4): 8.03%

Compound: C[C@H]1CCC/C=C/[C@@H]2C[C@H](O)C[C@H]2[C@H](O)/C=C/C(=O)O1 [BFA, brefeldin A]
generation of C99 ([1]; 10 μg/ml during the last 8 hours): reduced generation of C99
